Reference: patent publication US20030236190A1 (published 2003)
Non-standard residues stand in square brackets, D forms with d. No end group written: not given here. Hyp = O=C(O)[C@@H]1C[C@@H](O)CN1

B1: S441 (peptide)
peptide 1: ESFYDWFERQLGGGGK
peptide 2: WAWVQCEVYGRGCPS
modifications: not fully specified (bridges); cysteine pairing not given here; also: K16 of chain 1 chemically linked to C-terminus of chain 2 (C-C on a lysine)
B2: S440 (peptide)
peptide 1: ESFYDWFERQLGGGGK
peptide 2: EWAWVQCEVYGRGCPS
modifications: not fully specified (bridges); cysteine pairing not given here; also: K16 of chain 1 chemically linked to C-terminus of chain 2 (C-C on a lysine)
B3: S456 (peptide)
peptide 1: XGSLDESFYDWFERQLGKK
peptide 2: XKEWLDQEWAWVQCEVYGRGCPSEE
modifications: not fully specified; N-terminal Ald
B4: S439 (peptide)
peptide 1: ESFYDWFERQLGGGGK
peptide 2: QEWAWVQCEVYGRGCPS
modifications: not fully specified (bridges); cysteine pairing not given here; also: K16 of chain 1 chemically linked to C-terminus of chain 2 (C-C on a lysine)
B5: S437 (peptide)
peptide 1: ESFYDWFERQLGGGGK
peptide 2: LDQEWAWVQCEVYGRGCPS
modifications: not fully specified (bridges); cysteine pairing not given here; also: K16 of chain 1 chemically linked to C-terminus of chain 2 (C-C on a lysine)
B6: S438 (peptide)
peptide 1: ESFYDWFERQLGGGGK
peptide 2: DQEWAWVQCEVYGRGCPS
modifications: not fully specified (bridges); cysteine pairing not given here; also: K16 of chain 1 chemically linked to C-terminus of chain 2 (C-C on a lysine)
B7: S442 (peptide)
peptide 1: ESFYDWFERQLGGGGK
peptide 2: AWVQCEVYGRGCPS
modifications: not fully specified (bridges); cysteine pairing not given here; also: bond at chain A 16 to a chain's C-terminus
B8: S333 (peptide)
peptide 1: XGSLDESFYDWFERQLGKK
peptide 2: XGSLDESFYDWFERQLGKK
modifications: N-terminal Lig′ coupled to linker 22
notes: dimer, N-N
B9: S329 (peptide)
peptide 1: XFHENFYDWFVRQVSKK
peptide 2: XFHENFYDWFVRQVSKK
modifications: N-terminal Lig′ coupled to linker 17
notes: dimer, N-N
B10: S378 (peptide)
peptide 1: GSLDESFYDWFERQLGKKKX
peptide 2: GSLDESFYDWFERQLGKKKX
modifications: C-terminal Lys carrying Ald coupled to linker 17
notes: dimer, C-C
B11: S379 (peptide)
peptide 1: GSLDESFYDWFERQLGKKKX
peptide 2: GSLDESFYDWFERQLGKKKX
modifications: C-terminal Lys carrying Ald coupled to linker 19
notes: dimer, C-C
B12: S360 (peptide)
peptide 1: XDWLQRNANFYDWFVAEL
peptide 2: XDWLQRNANFYDWFVAEL
modifications: N-terminal Lig′ coupled to linker 23
notes: dimer, N-N
B13: S325 (peptide)
peptide 1: XGSLDESFYDWFERQLGKK
peptide 2: XGSLDESFYDWFERQLGKK
modifications: N-terminal Lig′ coupled to linker 9
notes: dimer, N-N
B14: S362 (peptide)
peptide 1: XGSLDESFYDWFERQLGKK
peptide 2: XGSLDESFYDWFERQLGKK
modifications: N-terminal Lig′ coupled to linker 24
notes: dimer, N-N
B15: S335 (peptide)
peptide 1: GSLDESFYDWFERQLGKKX
peptide 2: GSLDESFYDWFERQLGKKX
modifications: not fully specified; C-terminal Lig coupled to linker 22
notes: dimer, C-C
B16: S361 (peptide)
peptide 1: GSLDESFYDWFERQLGKKX
peptide 2: GSLDESFYDWFERQLGKKX
modifications: C-terminal Lig′ coupled to linker 24
notes: dimer, C-C
B17: S374 (peptide)
peptide 1: XGSLDESFYDWFERQLGKK
peptide 2: XGSLDESFYDWFERQLGKK
modifications: not fully specified; N-terminal Ald (aldehyde from periodate oxidation of serine) coupled to linker 17
notes: dimer, N-N
B18: S352 (peptide)
peptide 1: XGGGFHENFYDWFVRQVSKK
peptide 2: XGGGFHENFYDWFVRQVSKK
modifications: N-terminal Lig′ coupled to linker 21
notes: dimer, N-N
B19: S359 (peptide)
peptide 1: XDWLQRNANFYDWFVAEL
peptide 2: XDWLQRNANFYDWFVAEL
modifications: N-terminal Lig′ coupled to linker 9
notes: dimer, N-N
B20: S354 (peptide)
peptide 1: XGSLDESFYDWFERQLGKK
peptide 2: XGSLDESFYDWFERQLGKK
modifications: N-terminal Lig′ coupled to linker 14
notes: dimer, N-N
B21: S350 (peptide)
peptide 1: GSLDESFYDWFERQLGKKX
peptide 2: GSLDESFYDWFERQLGKKX
modifications: not fully specified; C-terminal Lig coupled to linker 21
notes: dimer, C-C
B22: S381 (peptide)
peptide 1: EEDWLQRNANFYDWFVAELX
peptide 2: EEDWLQRNANFYDWFVAELX
modifications: C-terminal Lig′ coupled to linker 23
notes: dimer, C-C
B23: S334 (peptide)
peptide 1: XGGGFHENFYDWFVRQVSKK
peptide 2: XGGGFHENFYDWFVRQVSKK
modifications: N-terminal Lig′ coupled to linker 22
notes: dimer, N-N
B24: S376 (peptide)
peptide 1: XGSLDESFYDWFERQLGKK
peptide 2: XGSLDESFYDWFERQLGKK
modifications: N-terminal Ald coupled to linker 19
notes: dimer, N-N

Each binder was assayed against T1, Soluble IGF-1R (R&D Systems, Cat. # 391-GR/CF); recombinant human IGF-1R (human, UniProt P08069 31-935) (assay: phage ELISA, vs IR).
T1 construct: extracellular domain; Eu3+-labelled in the TR-FRET assays; also called sIGF-1R; rhIGF-1R

Row | Binder | IGF-1R/IR Comparison
1 | CCTTEMVVMDARDDPFYHKLSELVTGG [B6Hα-1-B5-IR] | 20.5 ratio
2 | RGAVAGFHDQFYDWFDRQVSRVHKFG [H2CA-4-E9-IGFR] | 3 ratio
3 | YRGMLVLGRISGGAGKAASERPARIGQKVSAVNFYDWFV [A6L-0-H3-IR] | 13 ratio

The binders below were run against human insulin receptor (HIR) (human, UniProt P06213 28-1382, limits assumed) (assay: 125I-insulin competition, solubilised HIR).

Row | Binder | Kd
4 | GSLDESFYDWFERQLGGGSGGSWLDQEWAWVQCEVYGRGCPS [S459] | 0.076 nM
5 | GSLDESFYDWFERQLGGGSGGSWLDEEWAQVQCEVYGRGCPS [S543] | 0.019 nM
6 | ESFYDWFERQL [S399] | 95 nM
7 | B1 | 120 nM
8 | WLDQEWAWVQCEVYGRGCPSGGSGGSGSLDESFYDWFERQLG [S457] | 1.6 nM
9 | WLDQEWAWVQCEVYGRGCPSGGSGGSGSLDESFYDWFERQLG [S458] | 3.2 nM
10 | LDQEWAWVQCEVYGRGCPSESFYDWFERQLG [S471] | 0.67 nM
11 | ADQEWAWVQCEVYGRGCPSESFYDWFERQLG [S494] | 17 nM
12 | B2 | 99 nM
13 | B3 | 2.4 nM
14 | B4 | 46 nM
15 | LDEWAWVQCVEYGRGCPSESFYDWFERQLG [S483] | 52 nM
16 | B5 | 0.69 nM
17 | B6 | 30 nM
18 | B7 | 160 nM
19 | ESFYDWFERQ [S400] | 630 nM

The binders below were run against T1, Soluble IGF-1R (R&D Systems, Cat. # …) (assay: phage ELISA vs milk).

Row | Binder | Ratio over Background
20 | CCTTEMVVMDARDDPFYHKLSELVTGG [B6Hα-1-B5-IR] | 20.5 fold
21 | RGAVAGFHDQFYDWFDRQVSRVHKFG [H2CA-4-E9-IGFR] | 5.6 fold
22 | YRGMLVLGRISGGAGKAASERPARIGQKVSAVNFYDWFV [A6L-0-H3-IR] | 26 fold

Each binder was assayed against T2, human insulin receptor (HIR) (human, UniProt P06213 28-1382, limits assumed) (assay: 125I-insulin displacement, solubilised HIR).
T2 construct: Detergent-solubilised receptor; The natural receptor is an alpha2-beta2 heterotetramer cleaved from one precursor

Row | Binder | Kd
23 | B8 | 140 nM
24 | KHLCVLEELFWGASLFGYCSGKK [S331] | 1600 nM
25 | DLWFNAKEDMNFYDWFVWQLR [S342] | 1800 nM
26 | GSLDESFYDWFERQ [S394] | 91 nM
27 | B9 | 2700 nM
28 | B10 | 65 nM
29 | B11 | 56 nM
30 | EWRD[Hyp]FYDWFDE[dI][Hyp][dE] (printed: EWRD-Hyp-FYDWFDEi-Hyp-e) [S322] | 720 nM
31 | B12 | 990 nM
32 | B13 | 46 nM
33 | B14 | 110 nM
34 | B15 | 98 nM
35 | B16 | 2200 nM
36 | GSLDESFYDWFERQLGKKKS (not fully specified; printed as GSLDESFYDWFERQLGKKK(S)) [S373] | 120 nM
37 | GIISQSCPESFYDWFAGQVSDPWWC[dW] (cysteine pairing not given here, also called G33; H2CA-4-G9-IGFR) [S326] | 590 nM
38 | B17 | 180 nM

Row | Binder | Kd
39 | B18 | 660 nM
40 | RMYFSTGAPQNFYDWFVQEWD [S365] | 10000 nM
41 | FYDWFERQLG [S392] | 3800 nM
42 | B19 | 700 nM
43 | SLDESFYDWFERQLG [S387] | 630 nM
44 | B20 | 39 nM
45 | PLRESRNFYDWFVQQLE [S366] | 370 nM
46 | B21 | 470 nM
47 | GSLDESFYDWFERQLG (also called RP9 minus terminal lysines) [S386] | 320 nM
48 | SGSLDESFYDWFERQLGKK [S372] | 200 nM
49 | GSLDESFYDWFERQL [S395] | 8100 nM
50 | B22 | 120 nM
51 | B23 | 1600 nM
52 | GSLDESFYDWFERQLGKK (also called RP9) [S371] | 630 nM
53 | LDESFYDWFERQLG [S388] | 340 nM
54 | B24 | 160 nM
